Substitutions are numbered along the chain they refer to.
Assays:
Human IL-6 [1] = target: T1, Human IL-6 (human, UniProt P05231 30-212); assay: Octet bio-layer interferometry; biotinylated IL-6 on streptavidin sensor, then antibody or buffer, then soluble IL-6R1, then gp130 in the presence of IL-6R1; blocked ligand: gp130
T1 construct: also called huIL-6; Interleukin-6
Description: (§1) To determine the antibody mechanism of action, mechanistic studies were performed using bio-layer interferometry with an Octet QK instrument (ForteBio; Menlo Park, Calif.). Studies were performed in two different configurations. […] Binding is monitored as an increase in signal.
The IL-6 bound to the sensor was then incubated either with the antibody in question or diluent solution alone.

Cynomolgus monkey IL-6 [2] = target: T2, Cynomolgus monkey IL-6 (cynomolgus monkey, UniProt P79341 28-212, limits assumed); assay: cell-based or functional assay
T2 sequence (looked up): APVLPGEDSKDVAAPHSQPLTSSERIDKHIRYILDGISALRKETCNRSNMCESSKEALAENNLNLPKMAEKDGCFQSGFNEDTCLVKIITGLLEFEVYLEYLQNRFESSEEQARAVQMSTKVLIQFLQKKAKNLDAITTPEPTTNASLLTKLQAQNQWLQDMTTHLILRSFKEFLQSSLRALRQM

Human IL-6 [3] = target: T1, Human IL-6; assay: cell-based or functional assay
Rat IL-6 [4] = target: T3, Rat IL-6 (rat, UniProt P20607 25-211); assay: cell-based or functional assay
T3 sequence (looked up): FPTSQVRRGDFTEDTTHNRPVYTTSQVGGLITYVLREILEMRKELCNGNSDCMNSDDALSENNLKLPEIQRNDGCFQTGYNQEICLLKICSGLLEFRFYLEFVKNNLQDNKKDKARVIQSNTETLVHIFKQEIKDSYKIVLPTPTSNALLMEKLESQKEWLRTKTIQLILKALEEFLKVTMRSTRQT

Mouse IL-6 [5] = target: T4, Mouse IL-6 (mouse, UniProt P08505 25-211); assay: cell-based or functional assay
T4 sequence (looked up): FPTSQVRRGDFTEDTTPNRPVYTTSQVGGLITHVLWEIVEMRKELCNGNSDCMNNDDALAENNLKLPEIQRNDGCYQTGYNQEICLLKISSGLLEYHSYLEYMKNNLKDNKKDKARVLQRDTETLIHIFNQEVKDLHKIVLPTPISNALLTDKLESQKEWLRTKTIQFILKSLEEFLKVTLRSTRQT

Cynomolgus monkey IL-6 [6] = target: T2, Cynomolgus monkey IL-6; assay: surface plasmon resonance, 25 C, averaged constants
Human IL-6 [7] = target: T1, Human IL-6; assay: as above
Rat IL-6 [8] = target: T3, Rat IL-6; assay: as above
Mouse IL-6 [9] = target: T4, Mouse IL-6; assay: as above
Human IL-6 [10] = target: T1, Human IL-6; assay: Octet bio-layer interferometry; antibody captured on anti-human IgG Fc sensor, then IL-6, then soluble IL-6R1, then gp130 in the presence of IL-6R1; ligand whose binding is slowed: gp130
Description: as §1
(§2) In the second orientation, the antibody was bound to a biosensor coated with an anti-human IgG1 Fc-specific reagent (ForteBio part number 18-5001). […] All studies were performed in a 200 μL final volume, at 30° C. and 1000 rpm. For these studies, all proteins were diluted using ForteBio's sample diluent buffer (part number 18-5028).

Human IL-6 [11] = target: T1, Human IL-6; assay: Octet bio-layer interferometry; antibody captured on anti-human IgG Fc sensor, then IL-6, then soluble IL-6R1, then gp130 in the presence of IL-6R1; blocked ligands: IL-6R1 and gp130
Description: as §1, §2

B1: Ab4 (antibody, V domains shown)
VH: QEQLKESGGGLVTPGGTLTLTCTASGFSLNAYYMNWVRQAPGKGLEWIGFITLNNNVAYANWAKGRFTFSKTSTTVDLKMTSPTPEDTATYFCARSRGWGAMGRLDLWGHGTLVTVSS
VL: DPVLTQTPSPVSAPVGGTVSISCQASQSVYENNYLSWFQQKPGQPPKLLIYGASTLDSGVPSRFKGSGSGTQFTLTITDVQCDDAATYYCAGVYDDDSDDAFGGGTEVVVKR
notes: Captured on an anti-human IgG1 Fc sensor
binding result (Human IL-6 [1]): binds

B2: Ab3 (antibody, V domains shown)
VH: QSLEESGGRLVTPGTPLTLTCTASGFSLSVYYMNWVRQAPGKGLEWIGFITMSDNINYASWAKGRFTISKTSTTVDLKMTSPTTEDTATYFCARSRGWGTMGRLDLWGPGTLVTVSS
VL: B1 VL with D1A, P2A, P14A, E31D, D57A, K65V, D100N
notes: as for B1
binding result (Human IL-6 [1]): binds

B3: Ab1 (antibody, human IgG1, kappa, N297A, V domains shown)
VH: EVQLVESGGGLVQPGGSLRLSCAASGFSLSNYYVTWVRQAPGKGLEWVGIIYGSDETAYATSAIGRFTISRDNSKNTLYLQMNSLRAEDTAVYYCARDDSSDWDAKFNLWGQGTLVTVSS
VL: AIQMTQSPSSLSASVGDRVTITCQASQSINNELSWYQQKPGKAPKLLIYRASTLASGVPSRFSGSGSGTDFTLTISSLQPDDFATYYCQQGYSLRNIDNAFGGGTKVEIKR
notes: Humanized from a rabbit antibody, IgG1 kappa, aglycosylated, produced in Pichia pastoris; also called clazakizumab; ALD518
IC50 (pM), T1165 cell proliferation stimulated by the species' IL-6 (Cynomolgus monkey IL-6 [2]): 12 pM
IC50 (pM), T1165 cell proliferation stimulated by the species' IL-6 (Human IL-6 [3]): 13 pM
IC50 (pM), T1165 cell proliferation stimulated by the species' IL-6 (Rat IL-6 [4]): 2060 pM
IC50 (pM), T1165 cell proliferation stimulated by the species' IL-6 (Mouse IL-6 [5]): 1840 pM
Kd (Cynomolgus monkey IL-6 [6]): 0.031 nM
koff (Cynomolgus monkey IL-6 [6]): 3e-06 s⁻¹
kon (Cynomolgus monkey IL-6 [6]): 96000 M⁻¹ s⁻¹
Kd (Human IL-6 [7]): 0.004 nM
koff (Human IL-6 [7]): 5e-07 s⁻¹
kon (Human IL-6 [7]): 160000 M⁻¹ s⁻¹
Kd (Rat IL-6 [8]): 1.4 nM
koff (Rat IL-6 [8]): 0.0022 s⁻¹
kon (Rat IL-6 [8]): 1.6e+06 M⁻¹ s⁻¹
Kd (Mouse IL-6 [9]): 0.4 nM
koff (Mouse IL-6 [9]): 0.0004 s⁻¹
kon (Mouse IL-6 [9]): 1.1e+06 M⁻¹ s⁻¹

B4: Ab2 (antibody, V domains shown)
VH: QEQLKESGGRLVTPGTPLTLTCTASGFSLNDHAMGWVRQAPGKGLEYIGFINSGGSARYASWAEGRFTISRTSTTVDLKMTSLTTEDTATYFCVRGGAVWSIHSFDPWGPGTLVTVSS
VL: AYDMTQTPASVEVAVGGTVTINCQASETIYSWLSWYQQKPGQPPKLLIYQASDLASGVPSRFSGSGAGTEYTLTISGVQCDDAATYYCQQGYSGSNVDNVFGGGTEVVVKR
notes: The entry may carry a leader
binding result (Human IL-6 [10]): binds

B5: Ab6 (antibody, V domains shown)
VH: QSVEESGGRLVTPGTPLTLTCTVSGIDLSDYAMSWVRQAPGKGLEWIGIIYAGSGSTWYASWAKGRFTISKTSTTVDLKITSPTTEDTATYFCARDGYDDYGDFDRLDLWGPGTLVTVSS
VL: AAVLTQTPSPVSVPVGGTVTIKCQSSQSVYNNFLSWYQQKPGQPPKLLIYQASKLASGVPDRFSGSGSGTQFTLTISGVQCDDAATYYCLGGYDDDADNAFGGGTEVVVKR
notes: as for B1
binding result (Human IL-6 [11]): binds

Reference: patent US20160130340A1 (ALDERBIO, published 2016)
